Here are results for 41 sequences from the nanobody polyreactivity screen of Harvey et al. (2022).

The data set can be described thus: yeast display, Sf9 membrane polyspecificity reagent, FACS + sequencing; frameworks hold sequencing errors. The essentials:
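Using colony PCR, genes from sorted yeast display clones were amplified, then sequenced on MiSeq at 2 × 250 and filtered by CDR length. The clones had been stained with 10% biotinylated, detergent-solubilized Sf9 membrane reagent for 1 hour at 4 °C and sorted by FACS into low and high (top ~1%) gates on anti-HA and streptavidin fluorescence. Polyreactivity labels come from the gate of origin.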
For the sequence “QVQLVESGGGLVQAGGSRRLICAASGITFFAYTLGWYRQAPGKERELVASITGSSGGTYYADSVKGRFTISRDNAKNTVYLQMNSLKPEDTAVYYCATAYGRKLLLRGFYDQSHDMDYWGQGTQVTVSS”, the “polyreactivity (PSR sort gate)” value is listed as “low polyreactivity”.
For the sequence “QVQLVESGGGLVQAGGSRRLSCAASGGTFPFNAMGWYSPAPGKERELVAAITFTTSSTYYADSVKGRFTMSRDNAKNTVYLQMTSLKPEDTAVDYCAVDYGWYSAYYRESDYWGQGTQVTVSS”, the “polyreactivity (PSR sort gate)” value was “low polyreactivity”.
As for “QVQLVESGGGLVQAGGSRRLSCAASGLICLLYDMGWYREAPGKERELVAAISTGGSTDYADSVKGRFTISRDNAKNTVYLPLNSLKPEDTAVYYCAADYYLYYLDGEDYWVQGTQVTVSS”, the “polyreactivity (PSR sort gate)” value is on record as “high polyreactivity”.
The same measure for “QVQLVESGGGLVQAGGSRRLSCAASGLIYWYAMGWYRQAPGKERELVAAISSNGGSTYYADSVKGRFTISRDNAKNTVYLQMNSLKPEDTAVYYCAVTSFGYSVLERDYWGQGTQVTVSS”: “low polyreactivity”; for “QVQLVESGGGLVQAGGSRRLSCAASGNTFYANVMGWYRQAPGKERELVASITWSGGSTYYADSVKGRFTISRDNAKNTVYLQMNSLKPEDTAVYYCATSGDRLVWGQGTQVTVSS”: “low polyreactivity”; for “QVQLVESGGGLVQAGGSRRLSCAASGRIFDTYTMGWYRQAPGKERELVAAITTGGSTYYADSVKGRFTISRDNAMNTVYLQMNSLKPEDTAVYYCAARYRSIIRYYYWGQGTQVTVSS”: “high polyreactivity”.
Consider “QVQLVESGGGLVQAGGSRRLSCAASGRIFTTYAMGWYRQAPGKERELVAAITRNGGRTYYADSVKGRFTLSRDNAKNTVYVPMHSLKPEDTAVYYCAAVYRSFGKVYGMDYWGQGTQVTVSS”, for which the “polyreactivity (PSR sort gate)” value was “high polyreactivity”.
In the case of “QVQLVESGGGLVQAGGSRRLSCAASGRTFEGNAMGWYRPAPGKERELVAAISTSGGRTYYADSVKGRFTISRDNAKNTVYLQLNSLIPEDTAVYDCNTDQYSPYEYSSFDSWGQCTQVTVSS”, the “polyreactivity (PSR sort gate)” value is “low polyreactivity”.
On to “QVQLVESGGGLVQAGGSRRLSCAASGRTFPYNAMGWYRQATGKERELVATNDSSGTRTFYADSVKGRFTISRDNAKNTVYLQLNRLKPEDNAVYYCAAGIIYSNETNITSYDYWGQGTQVTVSS”, for which the “polyreactivity (PSR sort gate)” value is reported as “low polyreactivity”.
Turning to “QVQLVESGGGLVQAGGSRRLSCAASGRVFFNNAMGWYRQAPGKDREWVAGITSGSSTNYADSVKGRFTISRDNAKNTVYLQMNSLKPEYTAVDYCNKAPSWWDVRVPFDYWGQGTQVTVSS”, the “polyreactivity (PSR sort gate)” value is listed as “low polyreactivity”.
Turning to “QVQLVESGGGLVQAGGSRRLSCAASGSTFRGNAMGWYRQAPGKERELVAAITWSGDDTYYADSVKGRFTISRDNAKNTVYLQMNSLKPEDTAVYYCAADLAAFTLAVAYTYDYWGQGTQVTVSS”, the “polyreactivity (PSR sort gate)” value is given as “low polyreactivity”.
The same measure for “QVQLVESGGGLVQAGGSRRLSCAASGSTFWYYAMGWYRQAPGKERELVAAIRWSDGSTYYADSVKGRFTISRDNAKNTVYLQMTSLKPEDTAVYYCEYYYWGQGTQVTVSS”: “low polyreactivity”; for “QVQLVESGGGLVQAGGSRRLSCAASGSTVYTNAMGWSRQAPGKVRELVAAISGSGGSTYYADSVKGRFTISRDNPKNTVYLQMNSLKPEDTAVYYCAARSRNYDTRFDYWGQGTQVTVSS”: “low polyreactivity”; for “QVQLVESGGGLVQAGGSRRLTCAGSGYIFRPYAKRWYRQAPGKERELVAVISSGGSTYYADSVKGRFTISRDNEKNTVYFQMNSLKPQDTAVYYCKRTLWSMGGTTYEYWGQGTQVTVSS”: “low polyreactivity”.
In the case of “QVQLVESGGGLVQAGGSVRISCAASGRTFWYYAMGVYIQAPRKERELLAAITGRGGSTHYADSVKGRLTISRDNAKNTVYLPMISLKPEDTAVYYCAKDHYYRFPWGTGGYRGQGTQVTVSS”, the “polyreactivity (PSR sort gate)” value is “low polyreactivity”.
Under “QVQLVESGGGLVQAGGTLPLSCAASGRTFNGNAMGWYRQAPGKERELVATINYSGGSTYYADSVKGRFTISRDNAKNTVYLQMNSLKPEDNAVYYCAAGGYPWYLRRGGFAGYDYWGQGTQLTVSS” stands “low polyreactivity”.
Under “QVQLVESGGGLVQAGGTLRISCAPSGSTCVVINMGWYRQAPGKERELVAAISYSGGSTYADSVKGRFTISRDNAKNTVYLQMNSLKLEDTAVYYCAARHYWWYDYWGQGTQVTVSS” stands “low polyreactivity”; under “QVQLVESGGGLVQAGGTLRLICAASAFIFDGYTMGWYRQAPGTERELVAAISRSGGRTYYADSVKGRFTISRDNAKNTVYLQMNSQKPEDTAVYDCAVRYRQYSQNLASDYGYWGQGTQVTVSS”, “high polyreactivity”.
Regarding “QVQLVESGGGLVQAGGTLRLICAASGRISLRNGMGWYRQAPRKERELVAAITSGSSTDYADSVKGRFTISRDNAKNTVYLQMNSLKPEDTAVYYCAKDLLQSGPGAGRYDYWGQGTQVTVSS”, the “polyreactivity (PSR sort gate)” value is on record as “low polyreactivity”.
The same measure for “QVQLVESGGGLVQAGGTLRLSCAASGGIFTDYTMGWYRQAPGKERELVAAITWTGGSTYYADSVKGRFTISRDNAKNTVYLQMNSLKPEDTAVYYCAADDYWVNLDYWGQGTQVTVSS”: “low polyreactivity”; for “QVQLVESGGGLVQAGGTLRLSCAASGGIIAINAMVWYRQAPGKERELVAAISWGDGITYYADSVKGRFTISRDNAKNTVYLQMNSLKPEDTAVYYCAADEDEYRGGDETWGQGSQVTVSS”: “low polyreactivity”.
With “QVQLVESGGGLVQAGGTLRLSCAASGGTSRSYAMVWYRQAPGKERELVAAISWRGGRTYYADSVKGRFTISRDNAKNTVYLQMNSLKPEDTAVYYCAARQYSQETYDYWGQGSQVTVSS”, the “polyreactivity (PSR sort gate)” value is reported as “high polyreactivity”.
On to “QVQLVESGGGLVQAGGTLRLSCAASGIIFSFYTMGWYRQAPGKERELVAAITWSGGSTYYADSVKGRFTISRANAKNTVYLQMNSLKPEDTAVYYCNARNPWRKRSQGYSWGQGTQVTVSS”, for which the “polyreactivity (PSR sort gate)” value was “low polyreactivity”.
The same measure for “QVQLVESGGGLVQAGGTLRLSCAASGITFEHYAMGWYRQAPGKERELVAAINRSGDNTYYADSVKGRFTISRYNAKNTFYLQMNSLKPEDTAVYYCNTVELYWRGYDYWGQGTQVTVSS”: “high polyreactivity”; for “QVQLVESGGGLVQAGGTLRLSCAASGLTFARYAMGWYRQAPGKERELVAGIDSTGGTTYYADSVKGRFTISRDNAKNTFYLQMISLIPEDTAVYYCNTGGTFLDWVRSPFGFGYWGQGTQVTVSS”: “low polyreactivity”.
As for “QVQLVESGGGLVQAGGTLRLSCAASGRIFQYYDMGWYRQAPGKERELVAAITFSGGSTYYADSVKGRFTISRDNAKNTVYLQMNSLKPEDTAVYYCARGYWVYYPDGDYWGQGTQVTVSS”, the “polyreactivity (PSR sort gate)” value is reported as “low polyreactivity”.
The same measure for “QVQLVESGGGLVQAGGTLRLSCAASGRIFVINTMGWYRQAPGKERELVAAISRGGSTNYADSLKGRFTISRDNAKNTVYLQMNSLKPEDTAVYYCAATGYILFAGGGYDYWGQGTQVTVSS”: “low polyreactivity”; for “QVQLVESGGGLVQAGGTLRLSCAASGRIISYNPMGWYRAAAGKEMELVAPINWGGGSTYYADSVKGRFTISRDNAKNTVYLQMNSLKPEDTAVYYCNADSNWYYQWNYYGLYDYWGQGTQVTVSS”: “low polyreactivity”; for “QVQLVESGGGLVQAGGTLRLSCAASGSIFANYAMGWYRQAPGKERELVASISSGDSTNYADSVKGRFTISRDNAKNTVYLQMNSLKPEDTAVYYCASTFVGGIWSGYNYWGQGTQVTVSS”: “low polyreactivity”.
Under “QVQLVESGGGLVQAGGTLRLSCAASGSIFLINAMGWYRPAPGKERELVAAISRSGGRTYYADSVKGRFTISRDNAKNTVYLQMNSLKPEDTAVYYCAVPSIYYAGRAYDYWGQGTQVSVSS” stands “high polyreactivity”; under “QVQLVESGGGLVQAGGTLRLSCAASGSIFRRKVMVWYRQAPGKERELVAAMSWSGDRTYYADSVKGRFTISRDNAKNTVYLQMNSLKPEDTAVYYCAAANASPRRYGQYDDWGQGTQVTVSS”, “high polyreactivity”.
The same measure for “QVQLVESGGGLVQAGGTLRLSCAASGSIFYRYDMGWYRPAPGKERELVAAITWSGGSTYYADSVKGRFTISRDNAKNTVYLQMNSLKPEDTAVYYCNAPGDGYLYDHTYDYWGQGTQVTVSS”: “low polyreactivity”; for “QVQLVESGGGLVQAGGTLRLSCAASGSISIRNAMGWYRQAPGKERELVAAITYSGGSTYYADSVKGRFTISRDNAKNTVYLQMNSLKPEDTAVYYCAKDHYRFRYDYWGQGTQVTVSS”: “low polyreactivity”.
On to “QVQLVESGGGLVQAGGTLRLSCAASGSTFLINAMGWYRQAPGKERELVAAISWGGGSTYYADSVKGRFTISRDNGKNSVDLQMNRLTPEDTAVYYCAARYWYRVDYWGQGTQVTVSS”, for which the “polyreactivity (PSR sort gate)” value is “high polyreactivity”.
Under “QVQLVESGGGLVQAGGTLRLSCAASGYTLKWYTMGWYRQAPGKERELVATIRRGGGTYYADSVKGRFTISRDNAKNTVYLQMNSLKPVDTPVYYCAAEWSSVYNYDYWGQGTQVTVSS” stands “low polyreactivity”; under “QVQLVESGGGLVQAGGTLRLSCAASVFTFYYNTMGWYRQAPGKERELVAGIDISGSSTYADSVKGRFTISRDNAKNTVYLQMNSLKPEDTAVYYCAAVYFWGMDYWGQGTQVTVSS”, “low polyreactivity”.
“QVQLVESGGGLVQAGGTLRLSCAASVSTIAQNAMGWYRQAPGKEREFVAAITGTVGSTYYADSVKGRFTISRDNAKNTVYLQMKSLKPEDTAVYYCNTRGFNGRVYPYDYWGQGTQVTVSS”: the “polyreactivity (PSR sort gate)” value is on record as “low polyreactivity”.
Under “QVQLVESGGGLVQAGGTLRLSCAATRSTFYPYAMGWYRQAPGKERELVAAISDGDSTNYADSVKGRFTISRDNAKNTVSLQMNSVKPEDTAVYYCNADYVRIFYSYYGYHDYDYWGQGTQVTVSS” stands “low polyreactivity”.
Consider “QVQLVESGGGLVQAGGTLRLSCADSGSTFAGNGMGWYRQAPGKERQLVAGIDVTGGSTYYADSVKGRFTISRDNAKNTVYLQMNSLKPEDTAVYYCAARVVRYGYKYYYWGQGTQVTVSS”, for which the “polyreactivity (PSR sort gate)” value is “low polyreactivity”.
The same measure for “QVQLVESGGGLVQAGGTLRLSCAPSGSIFTFYAMGWYRQAPGKERELVAAITRSGGSTYYADSVKGRFTISRDNAKNTVYLQMNSLKPEDTAVYYCAKDPSSYVTYRYYYWGQGSQVTVSS”: “low polyreactivity”; for “QVQLVESGGGLVQAGGTLRLSCAPSGSTFYANTMGWYRPAPGKERELVATISWTGSSTYYADSVKGRFTISRDNAKNTVYLQMNSLNPEDTAVYYCNKRYYYRRNYWGQGTQVTVSS”: “high polyreactivity”.
